Earlier results as cited in patent publication US20100215737A1, “COMBINATION PHARMACEUTICAL COMPOSITIONS” (priority 2007, published 2010).

Tested on: MCO
Conditions: 1 mg/kg iv alone, 1, 2 or 3 h after occlusion

B1: rt-PA: tissue plasminogen activator, thrombolytic (protein, UniProt P00750 36-562, looked up)
Tissue-type plasminogen …: SYQVICRDEKTQMIYQQHQSWLRPVLRSNRVEYCWCNSGRAQCHSVPVKSCSEPRCFNGGTCQQALYFSDFVCQCPEGFAGKCCEIDTRATCYEDQGISYRGTWSTAESGAECTNWNSSALAQKPYSGRRPDAIRLGLGNHNYCRNPDRDSKPWCYVFKAGKYSSEFCSTPACSEGNSDCYFGNGSAYRGTHSLTESGASCLPWNSMILIGKVYTAQNPSAQALGLGKHNYCRNPDGDAKPWCHVLKNRRLTWEYCDVPSCSTCGLRQYSQPQFRIKGGLFADIASHPWQAAIFAKHRRSPGERFLCGGILISSCWILSAAHCFQERFPPHHLTVILGRTYRVVPGEEEQKFEVEKYIVHKEFDDDTYDNDIALLQLKSDSSRCAQESSVVRTVCLPPADLQLPDWTECELSGYGKHEALSPFYSERLKEAHVRLYPSSRCTSQHLLNRTVTDNMLCAGDTRSGGPQANLHDACQGDSGGPLVCLNDGRMTLVGIISWGLGCGQKDVPGVYTKVTNYLDWIRDNMRP
- neuroprotective effect, drug alone: neuroprotective effects when administered alone up to 1 h following occlusion
